# B1: OspF: protein encoded by the Shigella ospF gene, a dual specific phosphatase; NCBI Accession CAC05773 (protein)
# chain: MPIKKPCLKLNLDSLNVVRSEIPQMLSANERLKNNFNILYNQIRQYPAYYFKVASNVPTYSDICQSFSVMYQGFQIVNHSGDVFIHACRENPQSKGDFVGDKFHISIAREQVPLAFQILSGLLFSEDSPIDKWKITDMNRVSQQSRVGIGAQFTLYVKSDQECSQYSALLLHKIRQFIMCLESNLLRSKIAPGEYPASDVRPEDWKYVSYRNELRSDRDGSERQEQMLREEPFYRLMIE
# B2: myc-labelled OspF: OspF with a myc label expressed from plasmid pRK5myc-OspF (protein)
# chain: B1 chain
# modifications: left off: small tags and cut ends
# B3: MKP1: known mammalian dual specific phosphatase used as a control (protein, UniProt P28562 1-367, looked up)
# Dual specificity protein …: MVMEVGTLDAGGLRALLGERAAQCLLLDCRSFFAFNAGHIAGSVNVRFSTIVRRRAKGAMGLEHIVPNAELRGRLLAGAYHAVVLLDERSAALDGAKRDGTLALAAGALCREARAAQVFFLKGGYEAFSASCPELCSKQSTPMGLSLPLSTSVPDSAESGCSSCSTPLYDQGGPVEILPFLYLGSAYHASRKDMLDALGITALINVSANCPNHFEGHYQYKSIPVEDNHKADISSWFNEAIDFIDSIKNAGGRVFVHCQAGISRSATICLAYLMRTNRVKLDEAFEFVKQRRSIISPNFSFMGQLLQFESQVLAPHCSAEAGSPAMAVLDRGTSTTTVFNFPVSIPVHSTNSALSYLQSPITTSPSC
# How the values were obtained:
# [1] = system: histone H3 phosphorylation at Ser 10 (H3 pS10); assay: H3 pS10 immunofluorescence in HeLa cells infected with the ospF strain, kinase inhibitors; assay type: cell-based; settings: 60 min pretreatment with both U0126 (10 μM) and SB203180 (2.5 μM), infection 30 min
# Description: Indirect immunofluorescence detection was performed with anti-phospho-histone H3 S10 polyclonal antibody. […] Cells were left untreated (ns) or infected with the ospF strain for 30 min. IF was performed with anti-H3 methyl K9-pS10 antibody.
# Indirect immunofluorescence. Cells were fixed with 3.7% paraformaldehyde in PBS for 10 min, permeabilized with 0.5% Triton-X in PBS. The following antibodies were used: anti-phospho-p42/p44 antibody (Sigma); anti-p42/p44, anti-phospho-histone H3 S10 (Upstate Cell Signaling), anti-acetyl histone H4 (Lys14) (Upstate Biotechnology) antibodies.
# phospho p38-GST = molecular target: T1, phospho p38-GST (Homo sapiens, UniProt Q16539); assay: In vitro phosphatase assay on phospho p38 (Western blot); assay type: biochemical; settings: purified phospho-MAP kinase, 50 nM
# T1 construct: GST
# T1 sequence (Q16539 whole entry): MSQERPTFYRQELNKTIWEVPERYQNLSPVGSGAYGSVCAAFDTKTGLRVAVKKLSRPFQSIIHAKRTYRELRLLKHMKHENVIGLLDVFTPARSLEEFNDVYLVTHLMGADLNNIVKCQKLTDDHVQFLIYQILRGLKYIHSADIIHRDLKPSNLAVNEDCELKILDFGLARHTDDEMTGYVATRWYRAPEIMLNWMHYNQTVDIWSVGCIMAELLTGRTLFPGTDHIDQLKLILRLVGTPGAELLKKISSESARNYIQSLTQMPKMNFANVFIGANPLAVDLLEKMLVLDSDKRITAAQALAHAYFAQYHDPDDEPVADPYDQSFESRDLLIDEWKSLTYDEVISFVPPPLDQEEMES
# phospho JNK1 Histidine = molecular target: T2, phospho JNK1 Histidine (Homo sapiens, UniProt P45983); assay: In vitro phosphatase assay on phospho JNK1 (Western blot); assay type: biochemical; settings: purified phospho-MAP kinase, 50 nM
# T2 construct: His
# T2 sequence (P45983 whole entry): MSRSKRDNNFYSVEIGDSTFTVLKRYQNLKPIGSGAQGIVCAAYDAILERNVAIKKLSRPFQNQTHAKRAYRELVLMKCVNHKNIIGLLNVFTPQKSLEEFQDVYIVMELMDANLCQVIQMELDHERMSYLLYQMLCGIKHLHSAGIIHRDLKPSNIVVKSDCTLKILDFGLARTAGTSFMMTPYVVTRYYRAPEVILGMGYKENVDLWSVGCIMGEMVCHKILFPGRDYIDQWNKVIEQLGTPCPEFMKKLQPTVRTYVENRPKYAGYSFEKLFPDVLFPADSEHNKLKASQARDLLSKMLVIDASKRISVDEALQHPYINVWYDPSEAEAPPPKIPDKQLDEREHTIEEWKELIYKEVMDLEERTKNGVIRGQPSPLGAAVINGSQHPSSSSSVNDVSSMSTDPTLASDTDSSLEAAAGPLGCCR
# [2] = system: histone H3 purified from calf thymus; assay: In vitro dephosphorylation of histone H3 / H3 tail peptides; assay type: biochemical; settings: 2 hours at 30° C., even when enzyme concentration increased 100 fold
# Description: (§1) (A) HeLa cells were left untreated (ns) or infected with the WT or the ospF strain at the indicated time. Indirect immunofluorescence detection was performed with anti-phospho-histone H3 S10 polyclonal antibody. (B) HeLa cells were synchronized by a double thymidine block (2 mM thymidine) and left untreated (ns) or infected with the WT or the ospF strain at the indicated time. Immunoblots were probed with anti-H3 phospho S10 (H3 pS10), anti-H3 methyl K9-phospho S10(H3 metK9-pS10), anti-H3 phospho S10. acetyl-K14 (H3 p-S10/Ac-K14), anti Histone H3 polyclonal anti-pp38 and pErk antibodies. (C) HeLa cells were transfected with pRK5myc-OspF vector and treated with 200 nM okadaic acid for 3 hours. IF was performed with anti-myc (red) and anti-H3 methyl K9-pS10 (green) antibodies. […] (D) One micogram of calf-thymus histone (Sigma) was incubated with 300 ng of His-OspF or with 120 U of λ phosphatase for 2 hours at 30° C. Western blot was performed with an anti-metK9-pS10 antibody. (E) One micogram of peptide metK9-S10 was spotted onto a nitrocellulose membrane that was incubated with buffers, 5 μg/ml of OspF, or 2000 U/ml of lambda phosphatase for 2 hours at 30° C. Western blot was performed with an anti-metK9-pS10 antibody. (F) HeLa cells were pretreated for 60 min with either the MEK1 inhibitor U0126 (10 μM) or the p38 inhibitor SB203180 (2.5 μM) or both. […]
# [3] = system: histone H3 phosphorylation at Ser 10 (H3 pS10); assay: H3 pS10 induced by okadaic acid in HeLa cells overexpressing OspF; assay type: cell-based; settings: HeLa transfected with pRK5myc-OspF, 200 nM okadaic acid 3 hours
# Description: as §1
# NF-κB reporter construct = assay: TNF-α-induced NF-κB reporter construct in Caco 2 cells; assay type: cell-based, human; settings: overexpression in Caco 2 cells
# Text: In addition to the classical MAPK-dependent target genes, OspF also repressed expression of some NF-κB-dependent chemokine genes such as IL-8. The IL-8 promoter contains an NF-κB binding site essential for expression of this gene (Hoffmann et al., 2002). Therefore, the inventors looked whether OspF interferes with the NF-κB signaling pathway. […] (FIG. 5E).
# IL-12 = assay: Murine model of pulmonary infection, lung cytokines by ELISA; assay type: in vivo, mice; settings: lungs infected with M90T or ospF strain, 24 hours post-infection (FIG. 10)
# Description: The cytokine/chemokine network induced upon infection with Shigella flexneri was analyzed by comparing the profiles obtained upon infection with the invasive strain carrying the virulence plasmid (INV+) and the non-invasive, plasmidless strain (INV−). The murine model of pulmonary infection was used since it was the only valid model to analyze the specific host immune response upon Shigella infection. Following infection with INV−, a Th1 type-network (IL-12, IL-18, IFN-γ, CCL9, CCL10, CCL13, and CCL4) was induced. In contrast, a Th2/Tr1 profile (IL-10, CCL1, CCL24 and CCL2) was induced upon infection with INV+. The difference observed was not due to the bacterial dose used for the infection, but was dependent on the presence or absence of the virulence plasmid.
# Some of these bacterial effectors are injected within the host cells by a type III secretion apparatus. Use of different bacterial mutants, has highlighted that the bacterial effectors involved in the immunomodulation were effectors secreted by the type III-secretion apparatus. Finally, OspF, a type III-secreted bacterial effector was responsible fore the control of IL-12 production (FIG. 10).
# ^33P-labeled Erk2 = assay: 33P-labeled Erk2 phosphatase assay, steady state kinetics; settings: 100 nM phosphatase, pH 8, 30° C., 10 minutes, Michaelis-Menten fit
# Description: Preparation of the ^33P-labeled Erk2 kinase substrate. The in vitro phosphorylation of the GST-Erk2 fusion protein was carried out by incubating 500 μg purified GST-Erk2 coupled to beads with 20 μg His6-tagged activated MEK1 (Upstate Cell Signaling) in a kinase buffer (50 mM Tris pH 7.5, 2 mM DTT, 10 mM MgCl2) with 100 μM ATP (γ-3P ATP, 3000 Ci/mmol) for 2 hours at 30° C. The beads were washed 5 times with 30 ml of 1× PBS and eluted in 50 mM Tris pH 8, 10 mM glutathione, and 10% glycerol. The fractions were dialyzed overnight to remove residual ATP in 50 mM Tris pH8, 50 mM NaCl, and 10% glycerol.
# In vitro phosphatase assay. […] Therefore, the reaction was initiated by the addition of the phosphatase, incubated for 10 minutes at 30° C. and terminated by adding 200 μl cold 20% trichloroacetic acid. The samples were centrifuged at 10,000×g and 200 μl of the supernatant was mixed with 5 ml of scintillation fluid for taking radioactivity measurements. The product generated (inorganic phosphate) was kept below 5% of the initial substrate concentrations. Reactions containing the Erk2 substrate and buffer without phosphatase was used as a blank for each data point. The data were fitted to the Michaelis-Menten equation using the software Kaleidagraph.
# The kinetic parameters were determined by following the production of radioactive inorganic phosphate.
# pErk2-GST = assay: In vitro phosphatase assay on phospho-Erk2 (Western blot); settings: purified protein, Western blot with anti phospho-Erk
# p38 MAP kinases = assay: p38 phosphorylation in transfected HeLa cells stimulated by TNF; assay type: cell-based; settings: TNF stimulation
# p46 and p54 JNK kinases = assay: JNK phosphorylation in transfected HeLa cells stimulated by TNF; assay type: cell-based; settings: TNF stimulation
# endogenous Erk = assay: Erk phosphorylation in transfected HeLa cells stimulated by PMA; settings: HeLa cells transfected with expression plasmid, PMA stimulation
molecule,measurement,setting,value
C[S+]([O-])c1ccc(-c2nc(-c3ccc(F)cc3)c(-c3ccncc3)[nH]2)cc1 (stereo not shown) [SB 203180],H3 pS10 signal induced by the ospF strain,[1],fully inhibited
N#CC(=C(/N)Sc1ccccc1N)/C(C#N)=C(\N)Sc1ccccc1N [U0126],H3 pS10 signal induced by the ospF strain,[1],fully inhibited
B1,dephosphorylation of phospho p38,phospho p38-GST,directly dephosphorylated
same,dephosphorylation of phospho JNK1,phospho JNK1 Histidine,failed to dephosphorylate
same,direct dephosphorylation of histone H3 (metK9-pS10 / pS10),[2],did not directly dephosphorylate
same,induction of H3 pS10 by okadaic acid,[3],efficiently prevented induction
same,TNF-α-induced activation of NF-κB reporter,NF-κB reporter construct,did not impair
same,IL-12 production in vivo,IL-12,down regulated
same,Vmax of Erk2 dephosphorylation,^33P-labeled Erk2,9.89 pM/s
same,kcat of Erk2 dephosphorylation,^33P-labeled Erk2,0.0001 s⁻¹
same,Km,^33P-labeled Erk2; read-out: Km of Erk2 dephosphorylation,0.204 µM
same,dephosphorylation of phospho-Erk2,pErk2-GST,directly dephosphorylated
B2,effect on p38 phosphorylation in cells,p38 MAP kinases,prevented phosphorylation
same,effect on JNK phosphorylation in cells,p46 and p54 JNK kinases,not
same,effect on Erk phosphorylation / ability to dephosphorylate Erk in cells,endogenous Erk,prevented phosphorylation
B3,kcat of Erk2 dephosphorylation,^33P-labeled Erk2,0.0006 s⁻¹

# From patent US8092989B2, “Targeting the histone code as a bacterial strategy for selectively modulating gene expression” (Institut Pasteur, priority 2005, dated 2012)
